Results from patent publication US7939292B2, “Modified heparinase III and methods of sequencing therewith” (Massachusetts Institute of Technology, priority 2000, dated 2011).

How the values were obtained:
Akt = Akt activation in B16BL6 tumor; set-up: species or system mice; conditions: mouse, in vivo
Protocol: f. Effect of heparinase treatment on Akt activation. The primary tumor was treated and processed as described above. Akt antibody and phospho-Akt antibody from New England Biolabs were used to probe the immunoblot.

B16BL6 melanoma cells = assay: Lung metastasis of heparinase treated B16BL6 cells after tail vein injection; type: in vivo, mice; conditions: cells treated 30 min at 37° C. before tail vein injection; 13 days
Protocol: We next investigated the ability of heparinase treated B16BL6 melanoma cells to metastasize to the lungs. B16BL6 cells in log growth phase were briefly trypsinized and resuspended in PBS to a final concentration of 1×10^6 per ml. Prior to injection, cells were treated with either PBS, hep I […] or hep III […] for 30 min. at 37° C. 0.2 ml cell suspensions (2×10^5 cells) were injected slowly via tail vein. Mice were sacrificed 13 days later and lungs were harvested, rinsed with tap water. The number of nodules on lung surface were counted with the assistance of a dissection microscope. * indicates p<0.05 (Mann-Whitney test).

B16BL6 melanoma [1] = assay: Primary tumor growth of B16BL6 melanoma in mice treated with heparinases; type: in vivo; conditions: 0.5 mg/kg/day
From the text: Heparinases I and III, which have very distinct substrate specificities for cleaving HLGAGs, were employed as tools to investigate the role of HLGAGs in tumor growth and metastasis. While heparinase I cleaves at the highly sulfated regions of HLGAGs, heparinase III only cleaves at the under-sulfated regions of the polysaccharide chain, thereby rendering these enzymes powerful tools to investigate in vivo and in vitro roles of HLGAGs, in development, morphogenesis, angiogenesis etc. To examine the roles of HLGAGs in tumor growth and metastasis, we used B16BL6 melanoma as a model system and treated tumor-bearing mice with either heparinases I or III to investigate both primary tumor growth as well as tumor metastasis. Consistent with the current paradigm, heparinase I accelerated tumor growth (FIG. 8). At a dosage of 0.5 mg/kg/day of heparinase I, tumor growth was increased by about 39%. […] Inhibition of primary tumor growth by heparinase III was first observed at 2 mg/kg per day. Tumor growth was inhibited by 73% at 12 mg/kg per day, the maximum dosage tested in the study (FIG. 8).
Mice, 15 days after tumor implantation with B16BL6 melanoma, were examined. 4×10^5 log growth phase B16BL6 melanoma cells in 0.1 ml PBS were injected to the flank of C57BL/6 mice on day 1. Daily injection of 0.1 ml of PBS, heat inactivated hep III or active heparinase III (2 mg/ml, recombinantly expressed, purified, buffer exchanged with PBS, and concentrated) started at the day 4 and continued throughout the experiment. At day 7, osmotic pumps (100 μl capacity delivering at 0.5 μl per hour) containing PBS or 3 mg/ml hep III were implanted subcutaneously at a place remote from the tumor site. Mice were sacrificed at day 15.
FIG. 8 depicts the tumor volume of the tumors isolated from the mice described above. Tumor volume was measured daily after day 7 with a caliper and calculated with the formula [volume=0.52×(width)^2×(length)].

FGFR1 = FGFR1 phosphorylation in B16BL6 tumor samples; set-up: species or system mice; conditions: mouse, in vivo
Protocol: c. Effect of treatment of tumor with hep I and hep III in FGFR1 activation compared to PBS. Level of phosphorylated FGFR1 in tumor samples was assessed by standard immunoprecipitation followed by Westernblotting with phosphotyrosine specific antibody. Primary B16BL6 tumors were grown and treated as described earlier and at day 15 the tumor was harvested in cold modified RIPA buffer containing enzyme inhibitors and homogenized. The homogenates were past through 25-gauge needle 3 times and centrifuged. The supernatant was adjusted for protein concentration using the Bio-Rad protein assay kit (Bio-Rad). FGFR1 was immunoprecipitated with poly-clonal anti-FGFR1 antibody (Santa Cruz Biotechnology, Inc., CA). Samples were then pelleted, washed, and eluted from the beads by addition of sample buffer and boiled for 3 minutes (Kapila, Y. L., Wang, S. & Johnson, P. W. Mutations in the heparin binding domain of fibronectin in cooperation with the V region induce decreases in pp125(FAK) levels plus proteoglycan-mediated apoptosis via caspases. J Biol Chem 274, 30906-13 (1999).). After electrophoresis, the gel was transferred to nitrocellulose membrane by standard methods. The immunoblot was probed with phosphotyrosine specific antibody conjugated to HRP (RC20; Transduction Laboratories, Lexington, Ky.) and developed with SuperSignal West Pico Chemiluminescent substrate. […]

Erk-1, 2 = Erk-1, 2 activation in FGF2 stimulated B16BL6 cells (immunoblot); type: cell-based; conditions: enzyme 200 nM 30 min before 50 ng/ml FGF2
Protocol: a. Methods: B16BL6 cells in 10 cm culture dishes were serum starved for 48 hours before stimulation with 50 ng/ml FGF2. Cells were stimulated for 20 minutes before whole cell lysates were prepared with 1 ml modified RIPA buffer containing various enzyme inhibitors (50 mM Tris-HCl, pH 7.4, 1% NP-40, 0.25% Na-deoxycholate, 150 mM NaCl, 1 mM EDTA, 1 mM PMSF, 1 μg/ml aprotinin, leupeptin, and pepstatin, 1 mM activated Na3VO4, 1 mM NaF). Protein concentration in the lysate was determined using the Bio-Rad protein assay kit (BioRad) and adjusted accordingly for electrophoresis analysis. For the heparinase treated groups, cells were treated with either hep I or hep III (200 nM) for 30 min at 37° C. prior to addition of FGF2. The immunoblot was probed with anti-Erk-1, 2 or anti-phospho-Erk-1, 2 antibody (New England Biolabs; MA) and detected by anti-rabbit IgG conjugated to HRP using SuperSignal West Pico Chemiluminescent substrate (Pierce, Ill.).

B16BL6 melanoma [2] = assay: Histological examination of tumor samples (apoptosis, TdT labeling); type: in vivo, mice
Protocol: Immunohistochemistry was done as described (Parangi et al., 1996; O'Reilly et al., 1994) with minor modifications. Briefly, tumor tissues were fixed in either 4% (vol/vol) formaldehyde overnight for von Willebrand factor (vWF) staining and terminal deoxynucleotide transferase (TdT) labeling or in Glyo-Fixx solution overnight for Ki-67 nuclear antigen staining. Tissues were embedded in paraffin according to standard histological procedures. For vWF staining, sections (5 μm thick) were incubated with 0.2 N HCl for 10 min. autoclaved in a Coplin jar immersed with Target retrieval Solution (Dako) for 15 min. and permeabilized with 2 μg/ml proteinase K at 37° C. for 15 min. Sections were incubated with rabbit anti-human vWF antibody coupled with horseradish peroxidase (HRP) (Dako). Positive staining was detected by substrate reaction with diaminobenzidine. Sections were counterstained with Gill's hematoxylin and mounted in Permount (Fisher). […] Capillary density was determined by counting the number of vWF-positive capillaries per high power field (HPF, ×200). The proliferative and apoptotic indices of tumor cells within areas of viable tumor were estimated from the percentage of cells scored under a light microscope at 400-fold magnification. A minimum of 2000 cells were counted in each animal. # indicates standard error.

B16BL6 cells = assay: Growth in mice of B16BL6 cells after heparinase removal of the HLGAG coat; type: in vivo; conditions: HLGAG coat removed
From the text: There are two possible mechanisms by which heparinase may be acting on tumor cells. For instance, heparinase III treatment of cells may result in cells losing their unique surface HLGAG coat and this directly or indirectly may impinge on their ability to grow or metastasize. On the other hand heparinase III treatment of cells may also result in the generation of distinct HLGAG fragments, and these fragments could then directly or indirectly modulate tumor cell function. It was thought that heparinase III may function though either one of these mechanisms or through some combination of these mechanisms. To investigate the mechanisms of action further, we treated B16BL6 cells with either heparinases I or III, to remove the HLGAG coat on the tumor cell surface.
In further support of this conclusion ex vivo digestion of the HLGAG coat present on tumor cells with either heparinase, followed by centrifugation and resuspension in PBS to remove the enzyme and HLGAG fragments released from the cell surface, prior to in vivo injection results in the cells being functionally identical to controls. Thus the released tumor cell HLGAG fragments appear to play the key role in modulating tumor growth and metastasis.

B1: heparinase I: HLGAG degrading enzyme that cleaves at the highly sulfated regions of HLGAGs (protein, UniProt Q05819 22-384, looked up)
Heparin lyase I: QQKKSGNIPYRVNVQADSAKQKAIIDNKWVAVGINKPYALQYDDKLRFNGKPSYRFELKAEDNSLEGYAAGETKGRTELSYSYATTNDFKKFPPSVYQNAQKLKTVYHYGKGICEQGSSRSYTFSVYIPSSFPDNATTIFAQWHGAPSRTLVATPEGEIKTLSIEEFLALYDRMIFKKNIAHDKVEKKDKDGKITYVAGKPNGWKVEQGGYPTLAFGFSKGYFYIKANSDRQWLTDKADRNNANPENSEVMKPYSSEYKTSTIAYKMPFAQFPKDCWITFDVAIDWTKYGKEANTILKPGKLDVMMTYTKNKKPQKAHIVNQQEILIGRNDDDGYYFKFGIYRVGNSTVPVTYNLSGYSETAR
With B1 the “activation of Akt in tumor” value (Akt) was “no change in activation of Akt”, the “ability of treated B16BL6 cells to metastasize to the lungs compared to PBS treated cells” value (B16BL6 melanoma cells) was “marginally effected, if any” and the “increase of tumor growth” value (B16BL6 melanoma [1]) was “about 39%”. For the same molecule, the “phosphorylation of FGFR1 in primary tumor” value (FGFR1) was “opposite effect on the phosphorylation of FGFR1”, the “Erk-1, 2 activation upon FGF2 stimulation” value (Erk-1, 2) was “increased Erk-1, 2 activation” and the “apoptosis in tumor samples, enzyme treated tumors” value (B16BL6 melanoma [2]) was “reduced apoptosis”. The “ability of treated B16BL6 cells to grow in mice compared to untreated cells” value (B16BL6 cells) was “no effect”.
